# Experimental data published in patent US20170306346.
# Target: GST-MYC2-HA (UniProt Q39204)
# Sequence (Q39204 whole entry): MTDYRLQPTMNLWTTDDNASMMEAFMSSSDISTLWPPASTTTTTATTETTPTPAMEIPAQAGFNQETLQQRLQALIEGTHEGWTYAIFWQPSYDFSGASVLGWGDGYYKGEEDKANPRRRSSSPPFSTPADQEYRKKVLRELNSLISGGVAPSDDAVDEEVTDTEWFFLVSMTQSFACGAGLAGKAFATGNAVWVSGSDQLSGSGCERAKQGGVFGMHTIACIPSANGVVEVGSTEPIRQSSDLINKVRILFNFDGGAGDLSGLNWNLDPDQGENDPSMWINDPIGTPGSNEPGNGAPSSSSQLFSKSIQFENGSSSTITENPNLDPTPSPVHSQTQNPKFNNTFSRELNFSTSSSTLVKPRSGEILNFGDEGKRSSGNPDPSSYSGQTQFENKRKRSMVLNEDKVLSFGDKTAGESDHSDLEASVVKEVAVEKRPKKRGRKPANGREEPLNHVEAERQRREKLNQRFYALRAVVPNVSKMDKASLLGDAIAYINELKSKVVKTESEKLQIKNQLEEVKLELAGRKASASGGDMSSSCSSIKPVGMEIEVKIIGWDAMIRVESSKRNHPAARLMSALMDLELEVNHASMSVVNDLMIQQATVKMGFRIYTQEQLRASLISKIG
substance,measurement,value
MBP-PUB11 (C247A)-myc,"in vitro ubiquitination of MYC2 (E1, E2, Ub; Western blot)",MBP-PUB11 (C247A)-myc mutant protein has no E3 activity for GST-MYC-HA
